Tests used:
[1] = biological target: T1, human folate receptor alpha (hFRα), recombinant protein (human, UniProt P15328 25-233); experiment: ELISA on recombinant FRα, cMyc tag detection
T1 construct: Bought recombinant proteins (His-tagged, or biotinylated via Avi-tag, e.g. AcroBiosystems FO1-H82E2, F01-H52H1); also called hFOLR1; huFOLR1
Description: (§1) Data were normalized and technical replicates were plotted as mean±SD. Data were fitted by non-linear regression and the half-maximal effective concentration ^{∘}EC50) was calculated using GraphPad Prism 9 software. ^{∘}FIG. 1C and FIG. 1D) Binding affinity determination of anti-FOLR1 VHHs for native FOLR1. Mouse ^{∘}FIG. 1C) or human FOLR1 FIG. 1D) was overexpressed on HEK293T cells and binding of the anti-FOLR1 VHHs was assessed using flow cytometry. The mean fluorescence intensity ^{∘}MFI) of the phycoerythrin signal was plotted for each VHH concentration. Data were fitted by non-linear regression using GraphPad Prism 9 software. ^{∘}FIG. 1E) Determination of the competition of representative family members with folic acid ^{∘}FA) using ELISA. Mouse FOLR1 was coated on the plate and was pre-incubated with or without 100 μM FA before adding the VHHs. Data were fitted by non-linear regression using GraphPad Prism 9 software.
(§2) In a first step, binding affinity and cross-reactivity of the purified VHHs to human and mouse FRα was assessed by ELISA, using detection of the cMyc tag ^{∘}FIG. 1A-B). […] 2HFO19 ^{∘}family 1) was the best binder of all tested VHHs to both mouse and human FRα with an EC₅₀ of 0.1 nM and 0.4 nM respectively ^{∘}FIG. 1A-B).

[2] = biological target: T2, mouse folate receptor alpha (mFRα), recombinant protein (mouse, UniProt P35846 25-232); experiment: ELISA on recombinant FRα, cMyc tag detection
T2 construct: Bought recombinant proteins (e.g. biotinylated, Acro Biosystems FO1-M82E9); also called mFOLR1; Ms FOLR1
T2 sequence (P35846 25-232 limits assumed): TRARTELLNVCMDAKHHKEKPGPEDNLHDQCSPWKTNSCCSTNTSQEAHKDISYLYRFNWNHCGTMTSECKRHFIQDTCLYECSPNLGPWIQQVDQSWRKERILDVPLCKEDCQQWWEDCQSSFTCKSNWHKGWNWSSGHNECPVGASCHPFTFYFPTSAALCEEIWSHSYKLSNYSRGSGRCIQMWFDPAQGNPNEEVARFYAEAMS
Description: as §1, §2

[3] = biological target: T2, mouse folate receptor alpha (mFRα), …; experiment: ELISA on coated mouse FOLR1, without and with 100 µM folic acid (series not separable)
Description: as §1
As interference with the endogenous transport of folates via FRα could have serious implications on brain homeostasis, competition between representative family members and FA for mouse FRα binding was assessed via ELISA ^{∘}FIG. 1E).

[4] = biological target: T1, human folate receptor alpha (hFRα), …; experiment: ELISA on recombinant human FOLR1, cMyc tag detection, normalised binding, non-linear fit
Description: as §1, §2

T1 sequence (P15328 25-233 limits assumed): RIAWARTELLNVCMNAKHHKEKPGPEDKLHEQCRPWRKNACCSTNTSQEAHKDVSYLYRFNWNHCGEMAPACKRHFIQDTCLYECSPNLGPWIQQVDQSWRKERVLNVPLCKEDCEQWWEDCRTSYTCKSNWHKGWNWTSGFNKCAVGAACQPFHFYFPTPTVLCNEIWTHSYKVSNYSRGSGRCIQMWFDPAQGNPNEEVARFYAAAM

Row | EC50 [1] | EC50 [2] | EC50 (read off the curve) [3] | EC50 [4] | Binder
1 | 0.4 nM | 0.1 nM | – | – | VHH 2HFO19 (family 1) (VHH, also called Nb19) VHH: QVQLQESGGGLVQPGGSLRVSCAASGFPFSTVYMSWVRQAPGKGLEWVSGINNDGGVIDYADSVKGRFTISRDNAKNTLYLQLNSLKPEDTALYFCARGRSFVATLSSSLRGQGTQVTVSS
2 | – | – | ~3 nM | 11.1 nM | VHH 3MFR60 (family 10) (VHH) VHH: QVQLQESGGGLVQAGGSLRVSCAASGIIFSMNGMGWFRQAPGKQRELVASITSGGSTKYADSVKGRFTISRDNAKNTVYLQMNSLKPEDTAVYYCNIQFGSRWSTYWGQGTQVTVSS
3 | – | – | – | 10.4 nM | VHH 2HFO42 (family 3) (VHH, also called 2HF042; Nb42) VHH: QVQLQESGGGLVQAGGSLRLSCAASGSGFSGMIMGWYRQVPGKQRELVATVTSHGTTNYADSVKGRFTISRDNAKNTVLLQMNSLKPEDTAVYYCNAHFPGIYWGKGTQVTVSS

Source: patent US20250304677A1 (VIB VZW, published 2025)
